Laboratory results from the nanobody polyreactivity screen of Harvey et al. (2022).

Test: yeast display, Sf9 membrane polyspecificity reagent, FACS + sequencing; frameworks hold sequencing errors
Outline: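 Galactose-induced (36–48 hours) yeast carrying a synthetic nanobody display library were exposed to 10% biotinylated, detergent-solubilized Sf9 membrane reagent at 4 °C for 1 hour. FACS followed streptavidin microbead enrichment, using low and high (top ~1%) gates for expression (anti-HA) and reagent binding (streptavidin). Colony PCR, MiSeq 2 × 250 sequencing and CDR-length filtering followed. Labels for polyreactivity reflect the gate of origin.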
With “QVQLVESGGGLVQAGGSLRLSCAASGSISYRYDKGWYRQAPGKEMELVATIRSGGSTNYADSVKGRFTISRDTAKNTVYLQMNSLKPEDTAVYYGAARLYARKKLHFSADSDYWGQGTQVTVSS” the “polyreactivity (PSR sort gate)” value was “low polyreactivity”.
In the case of “QVQLVESGGGLVQAGGSLRLSCAASGSIVAGYAMGWYRQAPGKEREMVAAISDSGGNTYYADSVKGRFTISRDNAKNTVYLQMNSLKPEDTAVYYCAADLGYGPLRELEYWGQGTQVTVSS”, the “polyreactivity (PSR sort gate)” value is reported as “low polyreactivity”.
With “QVQLVESGGGLVQAGGSLRLSCAASGSIVGGYDMGWYRQAPGKERELVAVINSNGGSTYYADSVKGRFTISRDNANNTVYLQMNSLKPEDTAVYYCAADYESYVYIGYGYWGQGTQVTVSS” the “polyreactivity (PSR sort gate)” value was “low polyreactivity”.
With “QVQLVESGGGLVQAGGSLRLSCAASGSIVGRYAMGWYSQAPGQERELVAAISTGDSTYYADSVKGRFTISRDNAKNTVYLQMNSLKPEDTAVYYCNRRGRRVYDYWGQGTQVTVSS” the “polyreactivity (PSR sort gate)” value was “high polyreactivity”.
With “QVQLVESGGGLVQAGGSLRLSCAASGSIVGYYFMGWYRQAPGKERELVAAITRSGSTYYADSVKGRFTISRDNEKNTVYLQMNSLKPEDTAVYYCAADGSYYWYTHTTYDYWGQGTQVTVSS” the “polyreactivity (PSR sort gate)” value was “low polyreactivity”.
In the case of “QVQLVESGGGLVQAGGSLRLSCAASGSIVNIYAMGWYRQAPGKERQLVARISCSGVSTYYADSVKGRLTISRDHAKNTVYLQMNSLKREDTAVYDCAARYGRVYYYGWYWLYYWGQGTQVTVSS”, the “polyreactivity (PSR sort gate)” value is reported as “high polyreactivity”.
In the case of “QVQLVESGGGLVQAGGSLRLSCAASGSIVNYYAMGWYRPAPGKERELVAAITSGGSTYYADSVKGRFTISRDNAKNTVYLQMNSLKAEDTAVYYCNKAFPYIYDYWGQGTQVTVSS”, the “polyreactivity (PSR sort gate)” value is reported as “low polyreactivity”.
With “QVQLVESGGGLVQAGGSLRLSCAASGSIVNYYAMGWYRQAPGKERELVAAITWSGGRTYSADSVKGRFTSSRDNAKNTVYLQMNSLKPEDTAVYYCATAPVRIRDILFSPRMDYWGLGTQVTVSS” the “polyreactivity (PSR sort gate)” value was “low polyreactivity”.
For “QVQLVESGGGLVQAGGSLRLSCAASGSIVVWNDMGWYRQAPGTEREFVAAITSRDGSTYYADSVKGRFTISRDNAKNTVYLQMNSLKPEDTAVYYCAARLRVTVFYSRTRYYWGQGTQVTVSS”, the “polyreactivity (PSR sort gate)” value was “low polyreactivity”.
For “QVQLVESGGGLVQAGGSLRLSCAASGSIVYTNALGWSRQAPAKERELVAAISGSGGNTYYADSVKVRFTISRDNAKNTVYLQMNSLNPEDTAVYYCAADRNAYYYDSYYYWGLGTQVTVSS”, the “polyreactivity (PSR sort gate)” value was “high polyreactivity”.
With “QVQLVESGGGLVQAGGSLRLSCAASGSIVYYYGMGWYRPAPGKETELVAAISTGGSTYYADSVKGRFTISRDKAKKTVYLQMNSLKPEDTADFYCSADYYTQWQTRYDYWGQGTQVTVSS” the “polyreactivity (PSR sort gate)” value was “low polyreactivity”.
In the case of “QVQLVESGGGLVQAGGSLRLSCAASGSIYDPYAMGWYRQAPGKERELVAAINGGSGSTFYADSVKGRFTISRDNAKNTVYFQMNSLKPEDTAVYYCAAKIWRYSPSYYPEPRGDYWGQGTQVNVSS”, the “polyreactivity (PSR sort gate)” value is reported as “low polyreactivity”.
With “QVQLVESGGGLVQAGGSLRLSCAASGSIYGSYVMGWYRQAPGKERELVAAINWSGGRTYYADSVKGRFTISRDNAKYTVFLQMNSLKPEDTAVYYCAARATNVYSKMDYWGQGTQVSVSS” the “polyreactivity (PSR sort gate)” value was “high polyreactivity”.
In the case of “QVQLVESGGGLVQAGGSLRLSCAASGSIYGYTMGWYRPAPGKERELVAAINRRADRTYYADSVKGRYTISRDNAKNTVYLQMNSLKPEDTAVYYCNKGGWYTLGYWGQGTQVTVSS”, the “polyreactivity (PSR sort gate)” value is reported as “high polyreactivity”.
For “QVQLVESGGGLVQAGGSLRLSCAASGSIYHPYALGWYRQAPGKERELVAAISKSGGNTYYADSVKGRFTISRDNAKNTVYLQMNCLKPEDTAVYYCAALDYWGQGTQVTVSS”, the “polyreactivity (PSR sort gate)” value was “low polyreactivity”.
With “QVQLVESGGGLVQAGGSLRLSCAASGSIYITYAMGWYRQAPGKERELVAAIRDSGDRTYYADSVKGRFTISRDNAKNTVYLQMNSLKPEDTAVYYCNARWQEPLKYDYWGQGTQVTVSS” the “polyreactivity (PSR sort gate)” value was “low polyreactivity”.
For “QVQLVESGGGLVQAGGSLRLSCAASGSIYNINAMGWYRQAPGKERELVATITSGGTTSYADSVKGRFTISRDNAKNTVYLQMNSLKPEDTAVYYCNAEIYPIVKAGRQHPRRYDYWGQGTQVTVSS”, the “polyreactivity (PSR sort gate)” value was “low polyreactivity”.
For “QVQLVESGGGLVQAGGSLRLSCAASGSIYPYYAKGWNRPAPRKERELFAAIDSGGSTNYADSLKGRFSITRDNAKNRVYLQLNSLIPEDTAVFYCADDVYWFAYVWSKYVFWGQGTHVTVSS”, the “polyreactivity (PSR sort gate)” value was “low polyreactivity”.
With “QVQLVESGGGLVQAGGSLRLSCAASGSIYQNAMGWYRQAPGKERELVAAITSSGGRTYADSVKGRFTISRDNAKNTVYLQMNSLKPEDTAVYYCAKDSTADELTGFDYWGQGTQVTVSS” the “polyreactivity (PSR sort gate)” value was “low polyreactivity”.
In the case of “QVQLVESGGGLVQAGGSLRLSCAASGSIYRWYAMGWYRQAPGKERELVASISSGTRTNYADSVKGRFTISRDNAKNTVYLQMNSLKPEDTAVYYCAAPYVKRWWGYGYWGQGTQVTVSS”, the “polyreactivity (PSR sort gate)” value is reported as “high polyreactivity”.
In the case of “QVQLVESGGGLVQAGGSLRLSCAASGSIYSNAMGWYRQAPGKERELVAAISRTGGSTYYADSVKGLFTISRDNAKITVYLQMNSLKPEDTAVYYCAVSAWTRSHALYYWGQGTQVTVSS”, the “polyreactivity (PSR sort gate)” value is reported as “high polyreactivity”.
For “QVQLVESGGGLVQAGGSLRLSCAASGSIYSNAMGWYRQAPGKERELVAAISWRDGRTYYADSVKGRFTISRDNAKNTVYLQMNSLKPEDTAVYYCNADSRPLSTYYYWGQGTQVTVSS”, the “polyreactivity (PSR sort gate)” value was “low polyreactivity”.
In the case of “QVQLVESGGGLVQAGGSLRLSCAASGSIYTHYAMGWYRQAPRKQRELVAAISRRGGSTYYADSVKGRFTISRDNAKNTVYLPMHSLKPEDTAVYYCAKSPDTAKEYDYWGQGTQVTVSS”, the “polyreactivity (PSR sort gate)” value is reported as “high polyreactivity”.
With “QVQLVESGGGLVQAGGSLRLSCAASGSIYTQNAMGWYRQAPGKERELVADISRGSTYYADSVKGRFTISRDNAKNTVYLQMNSLKPEDTAVYYCAADDIAHPSFVSTVDVGMDYWGQGTQVTVSS” the “polyreactivity (PSR sort gate)” value was “low polyreactivity”.
With “QVQLVESGGGLVQAGGSLRLSCAASGSIYVGNDMGWYSQAPGKESEFVATMSWAGGSTDYADSVKGRFTISRDNAKNTVYLQMNSQKPEDTAVYYCAKTPYSRYRYGGYTYRTFDYWGQGTQVTVSS” the “polyreactivity (PSR sort gate)” value was “low polyreactivity”.
With “QVQLVESGGGLVQAGGSLRLSCAASGSIYVNAMGWYRQAPGKERELVAVISKSGGSTYYADSVKGRFTISRDNAKNTVYLQMNSLKPEDTAVYYCATRGVSPSRPGYYWGQGTQVTVSS” the “polyreactivity (PSR sort gate)” value was “high polyreactivity”.
For “QVQLVESGGGLVQAGGSLRLSCAASGSIYVQNAMGWYRQAPGKERELVAAITFSGVDTYYADSVKGRFTISRDNAKNTVYFQMNSLKPEDTAVYYCNADRGYNLVRRSQAVVEMDYWGQGTQVTVSS”, the “polyreactivity (PSR sort gate)” value was “low polyreactivity”.
With “QVQLVESGGGLVQAGGSLRLSCAASGSIYWYAMGWYTQAPGKERELVAAITKSGSSTYYADSVKGRFTISRDNANNTVYLQMNSLIPEDTAVYYCAARRAVSGGVRMYYWGQGTQVTVSS” the “polyreactivity (PSR sort gate)” value was “high polyreactivity”.
For “QVQLVESGGGLVQAGGSLRLSCAASGSIYYGKTMGWYRHAAGKEWELDAAISSGGSTKYADSVKGRFTISRDNAKNTVYLQMNSLKPEDTAVYYSAADLPRYWVTWMDYWGQGTQLTVSS”, the “polyreactivity (PSR sort gate)” value was “low polyreactivity”.
In the case of “QVQLVESGGGLVQAGGSLRLSCAASGSIYYTNAMGWYRQAPGKERELVAAISYGGTTTYADSVKGRFTISRDNAKNTVYLQMNSLKPEDTAVYYCNADWLYYGYWGYGHIWYDYWGQGTQVTVSS”, the “polyreactivity (PSR sort gate)” value is reported as “low polyreactivity”.
In the case of “QVQLVESGGGLVQAGGSLRLSCAASGSKFYTNVMGWYRQAPGKERELVARIDSGGSTNYADSVKGRFTISRDNAKNTVYLQMNSLKPEDTAVYYCAADWYIYDYWGQGTQVTVSS”, the “polyreactivity (PSR sort gate)” value is reported as “low polyreactivity”.
For “QVQLVESGGGLVQAGGSLRLSCAASGSLFGGYAMGWYRQAPGKERELVAAISGSGGSTYYADSVKGRFTISRDNAKNTVYLQMNSLKPEDTAVYYCAAEYYGTYSEGGESYDYWGQGTQVTVSP”, the “polyreactivity (PSR sort gate)” value was “low polyreactivity”.
In the case of “QVQLVESGGGLVQAGGSLRLSCAASGSLIRRYAMGWYRQAPGKEREFVAAISGRGGRTYYADSVKGRFTISRDNAKNTVYLQMNSLKPEDTAVYYCNAAFVTAEMDYWGQGTQVTVSS”, the “polyreactivity (PSR sort gate)” value is reported as “high polyreactivity”.
For “QVQLVESGGGLVQAGGSLRLSCAASGSLSSRNAMGAYRQAPGKERELVAAITRGSSTNYADSVKGRFTISRDNAKNTVYLQMNSLKPEDTAVYYCARRYDPVYKGMGYWGQGTQVTVSS”, the “polyreactivity (PSR sort gate)” value was “low polyreactivity”.
In the case of “QVQLVESGGGLVQAGGSLRLSCAASGSMFSVYAMGGYRQAPGKEMELVAAISRSGGSTYYADSVKGRFTISRDTAKNTVYLQMNSLKPEDTAVYYCAARLAGRGSSSSRVVRTGGYWGQGTQVTVSS”, the “polyreactivity (PSR sort gate)” value is reported as “high polyreactivity”.
For “QVQLVESGGGLVQAGGSLRLSCAASGSNFAVYAMGWYRQAPGKERELVAAISFSGGSTYYADSVKGRFTISRDNAKNTVYLQMNSLKPEDTAVYYCAADPWWTRTDLDYWGQGTQVTVSS”, the “polyreactivity (PSR sort gate)” value was “low polyreactivity”.
With “QVQLVESGGGLVQAGGSLRLSCAASGSNFAYYTMGWYRPAPGKERELVAAITSGGSTYYADSVKGRFTISRDNAKNTVYLQMNSLKPEDTAVYYCATRHSVGRYGMDSWGQGTQVTVSS” the “polyreactivity (PSR sort gate)” value was “high polyreactivity”.
For “QVQLVESGGGLVQAGGSLRLSCAASGSNFDDNAMGWYRQAPGKERELVAAITRSGGSTYYADSVKGRFTISRDNAKNTVYLQMISLKPEDTAVYYCAAAAYHSYGPGKRFYYWGQGSQVTVSS”, the “polyreactivity (PSR sort gate)” value was “high polyreactivity”.
For “QVQLVESGGGLVQAGGSLRLSCAASGSNFDTYAMGWYIPAPGKERELVAVLTWSGGGTYYSDSVKGRFTISRDNANNTVYLQMTSVKPEVTAVYYCNAADFGWDYASYYWGQGTQLTVSS”, the “polyreactivity (PSR sort gate)” value was “low polyreactivity”.
For “QVQLVESGGGLVQAGGSLRLSCAASGSNFETYVMGWYRQAPGKERELFAAINSGGSTNYADSVKGRFTISRDNAKNTVYLQMNSLKPEETAVYYCNADWFTPAQPWYRYFIRYDYWGQGSQVTVSS”, the “polyreactivity (PSR sort gate)” value was “low polyreactivity”.
For “QVQLVESGGGLVQAGGSLRLSCAASGSNFFYNVMGWYRQAPGKERELVAAITRSGGRTYYADSVKGRFTISRDNAKNTVYLQMNSLKPEDTAVYYCAAALGGKFDYWGQGTQVTVSS”, the “polyreactivity (PSR sort gate)” value was “high polyreactivity”.
